Results reported in patent US20220340649A1 (SENELIX, published 2022).
Residue numbers refer to the chain shown, from its start.

Tests used:
[1] = molecular target: T1, human YKL-40 (chitinase-3-like protein 1) (human, UniProt P36222 22-383); test: ELISA, purified IgG on antigen
T1 construct: Antigen protein immobilized in ELISA and on the Octet AR2G sensor; also called hYKL-40; human YKL-40 antigen

mouse YKL-40 [2] = molecular target: T2, mouse YKL-40 (mouse, UniProt Q61362 30-389); test: Octet BLI, antigen immobilized on AR2G sensor
T2 construct: Antigen protein immobilized in ELISA and on the Octet AR2G sensor; also called mYKL-40; mouse YKL-40 antigen
T2 sequence (Q61362 30-389): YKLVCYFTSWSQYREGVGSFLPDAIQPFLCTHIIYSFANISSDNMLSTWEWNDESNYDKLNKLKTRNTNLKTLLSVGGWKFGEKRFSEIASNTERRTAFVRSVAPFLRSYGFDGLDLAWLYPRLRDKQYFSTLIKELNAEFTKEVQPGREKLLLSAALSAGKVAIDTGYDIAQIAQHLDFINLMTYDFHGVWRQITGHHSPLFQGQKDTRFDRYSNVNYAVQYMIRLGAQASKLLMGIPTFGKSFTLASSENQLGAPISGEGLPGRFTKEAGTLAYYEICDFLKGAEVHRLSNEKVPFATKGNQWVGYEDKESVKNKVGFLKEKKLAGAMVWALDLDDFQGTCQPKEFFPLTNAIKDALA
Protocol: (§1) To reconfirm the EC₅₀ value measured by ELISA, the affinity for 4E3-F2 (M3) and 3A10-F1 (H1) was measured using an Octet instrument. Cross-binding was investigated for the two antibodies using hYKL-40 and mYKL-40. Each antigen protein was immobilized using the AR2G (Amine Reactive 2nd Generation) sensor, and the direct immobilization method of binding each antibody with different concentrations (0-1 μM) was employed.

[3] = molecular target: T1, human YKL-40 (chitinase-3-like protein …); test: ELISA, IgG titrated on hYKL-40, A450nm normalized
[4] = molecular target: T1, human YKL-40 (chitinase-3-like protein …); test: Octet BLI, antigen immobilized on AR2G sensor, antibody 0-1 µM; hYKL-40 on the sensor
Protocol: as §1

[5] = molecular target: T1, human YKL-40 (chitinase-3-like protein …); test: ELISA, Fab protein titrated on hYKL-40 antigen, A450nm normalized
mouse YKL-40 [6] = molecular target: T2, mouse YKL-40; test: ELISA, Fab protein titrated on mYKL-40 antigen, A450nm normalized
mouse YKL-40 [7] = molecular target: T2, mouse YKL-40; test: ELISA, purified IgG on antigen
mouse YKL-40 [8] = molecular target: T2, mouse YKL-40; test: Octet BLI, antigen immobilized on AR2G sensor, antibody 0-1 µM; mYKL-40 on the sensor
Protocol: as §1

T1 sequence (P36222 22-383 limits assumed): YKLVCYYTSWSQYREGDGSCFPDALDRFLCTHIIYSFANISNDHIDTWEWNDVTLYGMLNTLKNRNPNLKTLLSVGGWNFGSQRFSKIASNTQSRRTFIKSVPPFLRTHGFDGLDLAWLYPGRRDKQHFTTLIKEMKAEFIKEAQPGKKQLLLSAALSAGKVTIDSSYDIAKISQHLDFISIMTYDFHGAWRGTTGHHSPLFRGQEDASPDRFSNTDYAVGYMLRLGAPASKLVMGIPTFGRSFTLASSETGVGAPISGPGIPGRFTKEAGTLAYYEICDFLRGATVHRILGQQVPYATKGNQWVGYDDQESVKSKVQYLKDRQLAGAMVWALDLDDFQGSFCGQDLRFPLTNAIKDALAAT

B1: 3A10-F1 (H1) human IgG antibody (antibody, V domains shown)
VH: EVQLVESGGGLVQPGGSLRLSCAASGFTFSNYAMSWVRQAPGKGLEWVSGISGSGGTTYYADSVKGRFTISRDNSKNTLYLQMNSLRAEDTAVYYCAGVGTFDVWGQGTLVTVSS
VL: DIQMTQSPSSLSASVGDRVTITCRASQTISSWLNWYQQKPGKAPKLLIYAASRLQSGVPSRFSGSGSGTDFTLTISSLQPEDFATYYCQQSYSTPLTFGQGTKVEIK
notes: The phage clone was converted to human IgG and produced in Expi293 cells; also called human YKL-40 antibody 3A10-F1 (H1)
B1 was tested, and the EC50 [1] was 0.582 nM, the binding result (mouse YKL-40 [2]) was “no binding (tested: 0-1 µM)” and the EC50 [3] was 0.5 nM. The Kd [4] was 0.05 nM.

B2: 3A10-F1 (H1) Fab (Fab, V domains shown)
VH: B1 VH
VL: B1 VL
notes: Fab from the Fab-I phage library; also called Fab protein of 3A10-F1 (H1)
B2 was tested, and the EC50 [5] was 0.74 nM.

B3: 4E3-F2 (M3) Fab (Fab, V domains shown)
VH: QVQLVQSGAEVKKPGSSVKVSCKASGGTFSSYDIHWVRQAPGQGLEWMGIISPYLGITIYAQKFQGRVTITADESTSTAYMELSSLRSEDTAVYYCARRYFYYQSEAFDYWGQGTLVTVSS
VL: B1 VL with T28S, S31N, W32Y, R53T, T94F
notes: Fab from the Fab-II phage library; also called Fab protein of 4E3-F2 (M3)
For B3, the EC50 [5] was 23.6 nM and the EC50 (mouse YKL-40 [6]) was 4.3 nM.

B4: 4E3-F2 (M3) human IgG antibody (antibody, V domains shown)
VH: B3 VH
VL: B1 VL with T28S, S31N, W32Y, R53T, T94F
notes: The phage clone was converted to human IgG and produced in Expi293 cells; also called mouse YKL-40 antibody 4E3-F2 (M3)
B4 showed an EC50 (mouse YKL-40 [7]) of 0.067 nM, a Kd [4] of 57 nM and a Kd (mouse YKL-40 [8]) of 67 nM.
